Results reported in patent publication US20150299272A1 (UNIVERSITY OF NEWCASTLE UPON TYNE, published 2015).

Target: Caf1-FLAG epitope NT (Yersinia pestis, UniProt P26948 1-170)
Assay: co-expression in E. coli, western blot of partly heat-dissociated polymer

B1: Caf1 WT (naturally occurring Caf1 polypeptide monomer from Yersinia pestis; fraction 1 antigen polymer) (other)
chain: ADLTASTTATATLVEPARITLTYKEGAPITIMDNGNIDTELLVGTLTLGGYKTGTTSTSVNFTDAAGDPMYLTFTSQDGNNHQFTTKVIGKDSRDFDISPKVNGENLVGDDVVLATGSQDFFVRSIGSKGGKLAAGKYTDAVTVTVSNQ
binding result: binds
